Experimental findings from publication doi:10.1101/2025.04.16.649061 are described below.

Assay in all cases: BLI
Assay [1] concerns the target fXa variant M13 (7 EGF2 and 6 SP mutations) (human).
Assay [2] has as its target fXa L23 loop-swap chimera (human).
Assay [3] concerns the target fXa variant M7 (7 EGF2 mutations) (human).
Assay [4] has as its target Hopsarin D (Hoplocephalus stephensii).
The target in assay [5] is wild-type human factor Xa (human).
For assay [6], the target named is M17 fXa variant (human).
Assay [7] has as its target fXa L2 loop-swap chimera (human).
In assay [8] the target is fXa L123 loop-swap chimera (human).
Assay [9] concerns the target fXa L23 chimera with the full EGF2 domain swap (human | Hoplocephalus stephensii).
The target in assay [10] is fXa L123/EGF2 chimera (M45) (human | Hoplocephalus stephensii).
Assay [11] addresses fXa L3 loop-swap chimera (human).
Assay [12] concerns the target fXa L1 loop-swap chimera (human).
For assay [13], the target named is fXa SP chimera (entire HopD SP domain swapped into human fXa) (human | Hoplocephalus stephensii).

As for “B-domainless human fV (from UniProt P12259 29-2224) (natural protein)”, the Kd in assay [1] came out at 48 nM; in [2] it was 1120 nM; in assay [3] it was 78 nM; in assay [4], 18 nM; in assay [5], 1380 nM; in assay [6], 17 nM. Also, the dissociation constant (Kd) in [7] amounted to 1130 nM; in assay [8] it was 608 nM; in assay [9], 369 nM; in [10] it was 43 nM; in assay [11], 905 nM; in [12], 532 nM. In assay [13], this substance displayed a dissociation constant (Kd) of 400 nM.

By Kd is commonly meant the constant that tells how readily two partners part at equilibrium. A higher Kd goes with lower affinity.
